Source: the supplement of paper PMC6757056
± gives the standard deviation of the averaged measurements.

B1: library; a variant is named by its letters at N, in order (parent)
chain: GCUGUCACCGGAAUACCAGCAUCGUCUUGAUGCCCUUGGAAGUCCGGUCUGAUGAGUCCNNNNNGGACGAAACAGC
B2: library; a variant is named by its letters at N, in order (parent)
chain: GCUGUCACCGGUGUAUUACCCUAGUGGUCGACCGGUCUGAUGAGUCUNNNNNNAGACGAAACAGC

Legend:
[1] = variants of: B1; experiment: FACS-Seq fitted mean relative fluorescence mCherry/BFP without ligand (log10 relative fluorescence); higher = higher reporter protein expression; settings: HEK293T, ligand present: no
Outline: (§1)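 HEK293T libraries were lentivirally transduced with an mCherry reporter carrying the ribozyme switch and an EF1α-BFP marker, enriched, and incubated for 48 h with or without ligand before sorting into 6 bins by mCherry/BFP. Genomic DNA from each bin was PCR-amplified, barcoded and sequenced on MiSeq. Fluorescence is the fitted normal mean of the bin counts. The fit used log10(mCherry/BFP), and means were scaled to five spiked-in control ribozymes.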

[2] = variants of: B1; experiment: normalized RNA/DNA level with ligand (relative to sTRSVctl = 100) (log10 (% of sTRSVctl)); higher = less ribozyme self-cleavage, higher mRNA level; settings: ligand concentration (+) RNA-Seq: 5 mM, HEK293T, reporter: mCherry (pCS4076), ligand present: yes
Outline: (§2)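 Library plasmids carrying ribozyme switches linked to mCherry, or to eGFP in some ligand experiments, were transfected into HEK293T at 4 µg per 6-well well, with any ligand added 1 h earlier. Seventy-two hours on, total RNA was extracted with EDTA and reverse-transcribed, amplified, barcoded and sequenced. RNA level was RNA over DNA reads normalized to a spiked-in non-cleaving sequence or to the top sequences, then scaled and log-transformed. The top set was 25 sequences, the transform was ×100 and log10, and sequences needed ≥100 DNA reads.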

[3] = variants of: B1; experiment: normalized RNA/DNA level without ligand (relative to sTRSVctl = 100) (log10 (% of sTRSVctl)); higher = less ribozyme self-cleavage, higher mRNA level; settings: HEK293T, reporter: mCherry (pCS4076), ligand present: no
Outline: as §2

[4] = variants of: B1; experiment: FACS-Seq fitted mean relative fluorescence mCherry/BFP with ligand (log10 relative fluorescence); ligand concentration (+) FACS-Seq: 1 mM; higher = higher reporter protein expression; settings: HEK293T, ligand present: yes
Outline: as §1

[5] = variants of: B2; experiment: FACS-Seq fitted mean relative fluorescence mCherry/BFP without ligand (log10 relative fluorescence); ligand: hypoxanthine (xanthine aptamer); higher = higher reporter protein expression; settings: HEK293T, ligand present: no
Method: (§3)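 Hammerhead (sTRSV) ribozyme switch libraries with a ligand aptamer grafted on stem I and a randomized N4-6 loop II, cloned into the 3' UTR of mCherry and transiently transfected into HEK293T cells; RNA-Seq 72 h post transfection with ligand added 1 h before transfection; RNA read count / plasmid DNA read count normalized to the non-cleaving sTRSVctl (x100), log10; sequences with >100 DNA reads. FACS-Seq: lentiviral library sorted into 6 bins after 48 h ligand, log-normal fit mean of mCherry/BFP scaled to controls. Printed sequences are partial switch sequences.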

[6] = variants of: B2; experiment: normalized RNA/DNA level with ligand (relative to sTRSVctl = 100) (log10 (% of sTRSVctl)); ligand: hypoxanthine (xanthine aptamer); higher = less ribozyme self-cleavage, higher mRNA level; settings: ligand concentration (+) RNA-Seq: 5 mM, HEK293T, reporter: mCherry (pCS4076), ligand present: yes
Method: as §3

[7] = variants of: B2; experiment: normalized RNA/DNA level without ligand (relative to sTRSVctl = 100) (log10 (% of sTRSVctl)); ligand: hypoxanthine (xanthine aptamer); higher = less ribozyme self-cleavage, higher mRNA level; settings: HEK293T, reporter: mCherry (pCS4076), ligand present: no
Method: as §3

[8] = variants of: B2; experiment: FACS-Seq fitted mean relative fluorescence mCherry/BFP with ligand (log10 relative fluorescence); ligand: hypoxanthine (xanthine aptamer); ligand concentration (+) FACS-Seq: 5 mM; higher = higher reporter protein expression; settings: HEK293T, ligand present: yes
Method: as §3

AAACA
FACS-Seq fitted mean (log10) [1]: -0.0142 ± 0.16 | normalized RNA/DNA level with ligand (log10) [2]: 1.9113 ± 0.00046 | normalized RNA/DNA level without ligand (log10) [3]: 1.72 ± 0.14 | FACS-Seq fitted mean (log10) [4]: 0.172 ± 0.072

AUCCG
FACS-Seq fitted mean (log10) [1]: 0.573 ± 0.011 | normalized RNA/DNA level with ligand (log10) [2]: 1.92 ± 0.097 | normalized RNA/DNA level without ligand (log10) [3]: 1.96 ± 0.014 | FACS-Seq fitted mean (log10) [4]: 0.591 ± 0.063

GAAAAU
FACS-Seq fitted mean (log10) [5]: 0.558 ± 0.04 | normalized RNA/DNA level with ligand (log10) [6]: 1.92 ± 0.034 | normalized RNA/DNA level without ligand (log10) [7]: 1.8 ± 0.02 | FACS-Seq fitted mean (log10) [8]: 0.532 ± 0.074

GAAAAC
FACS-Seq fitted mean (log10) [5]: 0.271 ± 0.058 | normalized RNA/DNA level with ligand (log10) [6]: 1.87 ± 0.053 | normalized RNA/DNA level without ligand (log10) [7]: 1.7 ± 0.033 | FACS-Seq fitted mean (log10) [8]: 0.271 ± 0.06

GAAAAG
FACS-Seq fitted mean (log10) [5]: 0.326 ± 0.035 | normalized RNA/DNA level with ligand (log10) [6]: 1.83 ± 0.0058 | normalized RNA/DNA level without ligand (log10) [7]: 1.47 ± 0.038 | FACS-Seq fitted mean (log10) [8]: 0.473 ± 0.036

GAAAAA
FACS-Seq fitted mean (log10) [5]: 0.653 ± 0.036 | normalized RNA/DNA level with ligand (log10) [6]: 1.91 ± 0.027 | normalized RNA/DNA level without ligand (log10) [7]: 1.8 ± 0.041 | FACS-Seq fitted mean (log10) [8]: 0.629 ± 0.093

CAAACC
FACS-Seq fitted mean (log10) [5]: 0.631 ± 0.0022 | normalized RNA/DNA level with ligand (log10) [6]: 1.96 ± 0.046 | normalized RNA/DNA level without ligand (log10) [7]: 1.867 ± 0.0027 | FACS-Seq fitted mean (log10) [8]: 0.622 ± 0.027

AAAACA
FACS-Seq fitted mean (log10) [5]: 0.709 ± 0.064 | normalized RNA/DNA level with ligand (log10) [6]: 1.897 ± 0.015 | normalized RNA/DNA level without ligand (log10) [7]: 1.804 ± 0.015 | FACS-Seq fitted mean (log10) [8]: 0.65 ± 0.023

AAAAAA
FACS-Seq fitted mean (log10) [5]: 0.738 ± 0.02 | normalized RNA/DNA level with ligand (log10) [6]: 1.9 ± 0.042 | normalized RNA/DNA level without ligand (log10) [7]: 1.8 ± 0.033 | FACS-Seq fitted mean (log10) [8]: 0.664 ± 0.03

AAAAAG
FACS-Seq fitted mean (log10) [5]: 0.286 ± 0.03 | normalized RNA/DNA level with ligand (log10) [6]: 1.841 ± 0.013 | normalized RNA/DNA level without ligand (log10) [7]: 1.52 ± 0.036 | FACS-Seq fitted mean (log10) [8]: 0.588 ± 0.046

AAAAAU
FACS-Seq fitted mean (log10) [5]: 0.418 ± 0.0049 | normalized RNA/DNA level with ligand (log10) [6]: 1.9 ± 0.06 | normalized RNA/DNA level without ligand (log10) [7]: 1.74 ± 0.023 | FACS-Seq fitted mean (log10) [8]: 0.55 ± 0.021

CAAAAC
FACS-Seq fitted mean (log10) [5]: 0.248 ± 0.079 | normalized RNA/DNA level with ligand (log10) [6]: 1.9 ± 0.035 | normalized RNA/DNA level without ligand (log10) [7]: 1.78 ± 0.028 | FACS-Seq fitted mean (log10) [8]: 0.0907 ± 0.058

CAAAAA
FACS-Seq fitted mean (log10) [5]: 0.52 ± 0.1 | normalized RNA/DNA level with ligand (log10) [6]: 1.9 ± 0.04 | normalized RNA/DNA level without ligand (log10) [7]: 1.74 ± 0.025 | FACS-Seq fitted mean (log10) [8]: 0.526 ± 0.038

CAAAAG
FACS-Seq fitted mean (log10) [5]: 0.0525 ± 0.066 | normalized RNA/DNA level with ligand (log10) [6]: 1.87 ± 0.026 | normalized RNA/DNA level without ligand (log10) [7]: 1.59 ± 0.038 | FACS-Seq fitted mean (log10) [8]: 0.174 ± 0.031

UAAAAC
FACS-Seq fitted mean (log10) [5]: 0.723 ± 0.03 | normalized RNA/DNA level with ligand (log10) [6]: 1.914 ± 0.0064 | normalized RNA/DNA level without ligand (log10) [7]: 1.826 ± 0.0019 | FACS-Seq fitted mean (log10) [8]: 0.769 ± 0.068

UAAAAA
FACS-Seq fitted mean (log10) [5]: 0.315 ± 0.015 | normalized RNA/DNA level with ligand (log10) [6]: 1.905 ± 0.019 | normalized RNA/DNA level without ligand (log10) [7]: 1.784 ± 0.00081 | FACS-Seq fitted mean (log10) [8]: 0.22 ± 0.0062

UAAAAU
FACS-Seq fitted mean (log10) [5]: 0.434 ± 0.055 | normalized RNA/DNA level with ligand (log10) [6]: 1.89 ± 0.071 | normalized RNA/DNA level without ligand (log10) [7]: 1.76 ± 0.0046 | FACS-Seq fitted mean (log10) [8]: 0.454 ± 0.039

GAAACA
FACS-Seq fitted mean (log10) [5]: 0.6 ± 0.025 | normalized RNA/DNA level with ligand (log10) [6]: 1.91 ± 0.047 | normalized RNA/DNA level without ligand (log10) [7]: 1.857 ± 0.0049 | FACS-Seq fitted mean (log10) [8]: 0.389 ± 0.13
